Columns and labels:
[1] = system: substrate DNA (template-primer); test: DNA polymerase activity on different forms of substrate DNA (template-primer); type: biochemical
Description: The DNA polymerase activity was assayed using calf thymus DNA (manufactured by Worthington) activated by DNase I treatment (activated DNA) as a substrate. DNA activation and assay of DNA polymerase activity were carried out by the method described in DNA Polymerase from Escherichia coli, 263-276 (authored by C. C. Richardson), published by Harper & Row, edited by D. R. Davis.
An assay of enzyme activity was carried out by the following method. Specifically, 50 μl of a reaction solution [20 mM Tris-HCl (pH 7.7), 15 mM MgCl2, 2 mM 2-mercaptoethanol, 0.2 mg/ml activated DNA, 40 μM each of dATP, dCTP, dGTP and dTTP, 60 nM [^3H]-dTTP (manufactured by Amersham)], containing a sample for assaying its activity, was prepared and reacted at 75° C. for 15 minutes. A 40 μl portion of this reaction mixture was then spotted onto a DE paper (manufactured by Whatman) and washed with 5% Na2HPO4 five times. The remaining radioactivity on the DE paper was assayed using a liquid scintillation counter. The amount of enzyme which incorporated 10 nmol of [^3H]-dTMP per 30 minutes into the substrate DNA, assayed by the above-described enzyme activity assay method, was defined as one unit of the enzyme.
Next, in order to compare the selectivity of the DNA polymerase of the present invention for different forms of substrate DNA, the following template-primer was examined. Aside from the activated DNA used for conventional assay of the activity, those prepared as substrates include a thermal-denatured DNA prepared by treating the activated DNA at 85° C. for 5 minutes; M13-HT Primer prepared by annealing a 45-base synthetic deoxyribooligonucleotide of the sequence as shown by SEQ ID NO:6 in Sequence Listing as a primer to the M13 phage single stranded DNA (M13mp18 ssDNA, manufactured by Takara Shuzo Co., Ltd.); M13-RNA Primer prepared by annealing a 17-base synthetic ribooligonucleotide of the sequence as shown by SEQ ID NO:7 in Sequence Listing as a primer to the same M13 phage single stranded DNA; Poly dA-Oligo dT prepared by mixing polydeoxyadenosine (Poly dA, manufactured by Pharmacia) and oligodeoxythymidine (Oligo dT, manufactured by Pharmacia) in a 20:1 molar ratio; and Poly A-Oligo dT prepared by mixing polyadenosine (Poly A, manufactured by Pharmacia) and oligodeoxythymidine in a 20:1 molar ratio.
The DNA polymerase activity was assayed using these substrates in place of the activated DNA. The relative activity of each substrate when the activity obtained in the case of using an activated DNA as a substrate is defined as 100 is shown in Table 1. For comparison, the Pfu DNA polymerase and the Taq DNA polymerase derived from Thermus aquaticus (TaKaRa Taq, manufactured by Takara Shuzo Co., Ltd.) were also examined in the same manner.

λ-DNA = details: reported, enzyme used alone; cited from earlier work
M13-HT Primer = test: Primer extension reaction (autoradiogram, FIG. 6); type: biochemical; details: activated DNA added in great excess
Description: The primer extension activity was further investigated extensively. The M13-HT Primer, previously labeled with [γ-^32P]-ATP (manufactured by Amersham) and T4 polynucleotide kinase (manufactured by Takara Shuzo Co., Ltd.) at the 5′-end, was used as a substrate. Ten microliters of a reaction mixture [20 mM Tris-HCl (pH 7.7), 15 mM MgCl2, 2 mM 2-mercaptoethanol, 270 μM each of dATP, dGTP, dCTP and dTTP] containing the above substrate in a final concentration of […] and various DNA polymerases in amounts providing 0.05 units of activity as assayed with the activated DNA as a substrate was reacted at 75° C. for 1, 2, 3, or 4 minutes. After termination of the reaction, 2 μl of a reaction stop solution (95% […], 20 mM EDTA, 0.05% bromophenol blue, 0.05% xylenecyanol) was added, subjected to thermal denaturation treatment at 95° C. for 3 minutes. Two microliters of the reaction mixture was then subjected to electrophoresis using polyacrylamide gel containing 8 M urea and subsequently subjected to a preparation of autoradiogram. Also, in order to examine the extension activity in the presence of the activated DNA as a competitor substrate, the activated DNA was added to the above reaction mixture to a final concentration of […], and subjected to a preparation of an autoradiogram by the same procedures as described above.
In the figure, Pol, Pfu, and Taq show the results for the DNA polymerase of the present invention, the Pfu DNA polymerase and the Taq DNA polymerase, respectively. In addition, 1, 2, 3, and 4 each indicates reaction time (min). In the figure, the representation “−” and “+” show the results obtained in the absence and in the presence, respectively, of the activated DNA. The lanes G, A, T, and C at the left end of the figure also show the results of electrophoresis of the reaction products obtained by a chain termination reaction by the dideoxy method using the same substrate as above, which were used to estimate the length of each extension product.

B1: Pfu DNA Polymerase: α-type DNA polymerase derived from Pyrococcus furiousus, manufactured by Stratagene (protein, UniProt P61875 1-775, looked up)
DNA polymerase: MILDVDYITEEGKPVIRLFKKENGKFKIEHDRTFRPYIYALLRDDSKIEEVKKITGERHGKIVRIVDVEKVEKKFLGKPITVWKLYLEHPQDVPTIREKVREHPAVVDIFEYDIPFAKRYLIDKGLIPMEGEEELKILAFDIETLYHEGEEFGKGPIIMISYADENEAKVITWKNIDLPYVEVVSSEREMIKRFLRIIREKDPDIIVTYNGDSFDFPYLAKRAEKLGIKLTIGRDGSEPKMQRIGDMTAVEVKGRIHFDLYHVITRTINLPTYTLEAVYEAIFGKPKEKVYADEIAKAWESGENLERVAKYSMEDAKATYELGKEFLPMEIQLSRLVGQPLWDVSRSSTGNLVEWFLLRKAYERNEVAPNKPSEEEYQRRLRESYTGGFVKEPEKGLWENIVYLDFRALYPSIIITHNVSPDTLNLEGCKNYDIAPQVGHKFCKDIPGFIPSLLGHLLEERQKIKTKMKETQDPIEKILLDYRQKAIKLLANSFYGYYGYAKARWYCKECAESVTAWGRKYIELVWKELEEKFGFKVLYIDTDGLYATIPGGESEEIKKKALEFVKYINSKLPGLLELEYEGFYKRGFFVTKKRYAVIDEEGKVITRGLEIVRRDWSEIAKETQARVLETILKHGDVEEAVRIVKEVIQKLANYEIPPEKLAIYEQITRPLHEYKAIGPHVAVAKKLAAKGVKIKPGMVIGYIVLRGDGPISNRAILAEEYDPKKHKYDAEYYIENQVLPAVLRILEGFGYRKEDLRYQKTRQVGLTSWLNIKKS
- Relative Activity ([1]; substrate M13-HT primer, activated DNA = 100): 23
- Relative Activity ([1]; substrate M13-RNA primer, activated DNA = 100): 0.49
- Relative Activity ([1]; substrate activated DNA (defined as 100)): 100
- Relative Activity ([1]; substrate poly dA-Oligo dT, activated DNA = 100): 390
- Relative Activity ([1]; substrate thermal-denatured DNA, activated DNA = 100): 87
- strand length of DNA amplifiable by PCR (λ-DNA): at most 3 kbp
- inhibition of primer extension by activated DNA as competitor substrate (M13-HT Primer): strongly inhibited

— patent US6395526B1, “DNA polymerase” (Takara Shuzo Co., Ltd., priority 1995, dated 2002)
